Measurements taken from US5210024A, “Isolation of strains of Saccharomyces cerevisiae having altered α-acetyltransferase activity” (priority 1991, dated 1993).

Tests used:
[1] = biological target: T1, N^α -AT (AAA1 N^α -acetyltransferase) (Saccharomyces cerevisiae, UniProt P07347+P12945); assay: N^α-acetylation of synthetic peptides by AAA1 N^α-acetyltransferase ([3H]acetyl coenzyme A incorporation); type: biochemical; parameters: concentration or dose not given beside the values
T1 construct: isolates N^α -acetyltransferase by treating yeast cells with lyticase; endogenous in cells; host or cells: Saccharomyces cerevisiae cells (native enzyme)
T1 sequence (P12945 2-854): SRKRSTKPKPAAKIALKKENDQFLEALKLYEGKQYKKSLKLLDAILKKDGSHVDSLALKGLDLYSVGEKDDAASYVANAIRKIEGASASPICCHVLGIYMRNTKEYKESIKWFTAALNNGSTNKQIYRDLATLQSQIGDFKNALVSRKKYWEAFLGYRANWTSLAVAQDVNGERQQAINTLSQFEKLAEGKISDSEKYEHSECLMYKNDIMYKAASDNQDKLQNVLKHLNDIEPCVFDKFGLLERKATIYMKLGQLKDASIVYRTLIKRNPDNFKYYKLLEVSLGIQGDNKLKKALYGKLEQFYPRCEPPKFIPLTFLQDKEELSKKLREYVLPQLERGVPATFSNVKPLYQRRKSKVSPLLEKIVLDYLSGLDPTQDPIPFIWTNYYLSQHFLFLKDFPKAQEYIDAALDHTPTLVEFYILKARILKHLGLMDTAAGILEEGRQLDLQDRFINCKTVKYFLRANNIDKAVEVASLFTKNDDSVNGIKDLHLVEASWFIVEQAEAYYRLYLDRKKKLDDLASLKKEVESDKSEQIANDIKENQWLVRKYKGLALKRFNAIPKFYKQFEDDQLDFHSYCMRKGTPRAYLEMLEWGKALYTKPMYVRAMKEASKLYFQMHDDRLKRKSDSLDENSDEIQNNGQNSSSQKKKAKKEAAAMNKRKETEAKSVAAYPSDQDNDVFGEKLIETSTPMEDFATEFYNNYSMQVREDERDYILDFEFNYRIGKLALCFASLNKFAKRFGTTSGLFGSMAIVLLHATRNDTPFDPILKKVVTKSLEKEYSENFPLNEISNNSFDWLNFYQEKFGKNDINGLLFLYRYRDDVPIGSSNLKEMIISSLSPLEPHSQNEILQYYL
T1 sequence (P07347 1-238): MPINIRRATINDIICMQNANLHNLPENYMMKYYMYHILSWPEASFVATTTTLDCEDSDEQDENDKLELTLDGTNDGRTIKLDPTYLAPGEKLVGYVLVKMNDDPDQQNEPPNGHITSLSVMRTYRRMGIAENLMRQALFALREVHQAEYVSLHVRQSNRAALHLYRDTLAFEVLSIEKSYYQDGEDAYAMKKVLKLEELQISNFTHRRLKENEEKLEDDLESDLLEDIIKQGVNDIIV
Description: (§1) Aliquots of the lysate were added to 1.5 ml Eppendorf tubes containing a reaction mixture of 50 mM HEPES, pH 7.4, 150 mM KCl, 1 mM DTT, 25 μM[^3 H]acetyl coenzyme A (0.5 μCi) and 50 μM ACTH (1-24) with an adjusted final volume of 100 μl. The assay mixture was incubated at 30 C for 30 min. The reaction was stopped by adding 0.5 M acetic acid and chilled in an ice bath. […] The radioactivity in the control represented acetylation of endogenous compounds is subtracted from each sample determination. One unit of activity is defined as 1 pmol of acetyl residues incorporated into ACTH (1-24) under standard assay conditions.
(§2) This second N^α -acetyltransferase is a methionine N^α -acetyltransferase activity, and is designated as "M-N^α -AT." This second N^α -acetyltransferase is the subject of U.S. patent application of John A. Smith and Fang-Jen S. Lee, filed Oct. […] In order to compare the relative specificity and activity of the AAA1 N^α -acetyltransferase ("N^α -AT") of the present invention with the methionine N^α -acetyltransferase activity (M-N^α -AT) of U.S. patent application of John A. Smith and Fang-Jen S. Lee, filed Oct. […] These peptides were assessed for their ability to serve as substrates for the two enzymes. In Table 2, the effect of the amino terminal amino acid on activity is investigated; in Table 3, the effect of the penultimate amino terminal amino acid on activity is investigated.

[2] = biological target: T2, M-N^α -AT (methionine N^α -acetyltransferase) (Saccharomyces cerevisiae, UniProt Q06504); assay: N^α-acetylation of synthetic peptides by methionine N^α-acetyltransferase; type: biochemical; parameters: concentration or dose not given beside the values
T2 construct: endogenous in cells; host or cells: Saccharomyces cerevisiae aaa1 (AAA1-null) mutant
T2 sequence (Q06504 1-195): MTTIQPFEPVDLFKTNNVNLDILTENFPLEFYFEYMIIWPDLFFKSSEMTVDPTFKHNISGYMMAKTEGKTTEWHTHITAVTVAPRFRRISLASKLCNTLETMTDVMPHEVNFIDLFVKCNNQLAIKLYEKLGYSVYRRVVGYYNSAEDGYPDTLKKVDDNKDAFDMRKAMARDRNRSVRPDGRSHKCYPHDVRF
T2 sequence (Q12387 2-796 partner limits assumed): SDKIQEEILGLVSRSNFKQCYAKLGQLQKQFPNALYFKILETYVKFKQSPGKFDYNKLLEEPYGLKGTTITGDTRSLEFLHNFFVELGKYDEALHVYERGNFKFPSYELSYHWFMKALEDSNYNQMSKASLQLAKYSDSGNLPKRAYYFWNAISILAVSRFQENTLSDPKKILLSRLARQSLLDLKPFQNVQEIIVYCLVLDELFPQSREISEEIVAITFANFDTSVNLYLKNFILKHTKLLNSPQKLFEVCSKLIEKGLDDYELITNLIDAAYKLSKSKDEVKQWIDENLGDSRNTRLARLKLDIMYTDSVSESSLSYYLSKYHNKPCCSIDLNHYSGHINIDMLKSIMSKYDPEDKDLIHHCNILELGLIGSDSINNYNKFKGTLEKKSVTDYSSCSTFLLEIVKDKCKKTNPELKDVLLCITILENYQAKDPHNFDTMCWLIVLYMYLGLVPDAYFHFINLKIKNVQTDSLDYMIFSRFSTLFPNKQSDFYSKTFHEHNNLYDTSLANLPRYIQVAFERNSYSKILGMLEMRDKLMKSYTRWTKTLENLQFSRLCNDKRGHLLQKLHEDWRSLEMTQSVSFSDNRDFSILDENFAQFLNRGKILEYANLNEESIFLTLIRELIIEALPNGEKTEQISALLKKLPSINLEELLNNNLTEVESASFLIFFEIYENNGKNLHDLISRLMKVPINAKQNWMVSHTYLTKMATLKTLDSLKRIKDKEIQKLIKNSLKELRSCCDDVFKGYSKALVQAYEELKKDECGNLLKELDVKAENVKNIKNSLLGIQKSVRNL
Description: as §1, §2

[3] = biological target: T1, N^α -AT (AAA1 N^α -acetyltransferase); conditions: purified enzyme; Lee et al., J. Biol. Chem. 263:14948-14955 (1988); cited from earlier work
[4] = Table 2: relative activity for N^α-acetylation of synthetic peptide substrate, influence of the amino terminal residue
[5] = Table 3: relative activity for N^α-acetylation of synthetic peptide substrate, influence of the penultimate amino terminal residue

| Substance | Activity (%) (mean activity ± S.D.) N^α -AT [1, 4] | Activity (%) (mean activity ± S.D.) N^α -AT [1, 5] | Activity (%) (mean activity ± S.D.) M-N^α -AT [2, 4] | Activity (%) (mean activity ± S.D.) M-N^α -AT [2, 5] | transfer of an acetyl group to synthetic peptide substrates by purified yeast N^α-acetyltransferase [3] |
| --- | --- | --- | --- | --- | --- |
| SIPETQKGVIFYESHGKLEYKDIP (SIPETQKGVIFYESHGKLEYKDIP) [ALCOHOL DEHYDROGENASE I (1-24) (Yeast), synthetic peptide substrate, yeast alcohol dehydrogenase I residues 1-24, reference compound] | 102 ± 5% | 102 ± 5% | 0% | 0% | effectively transfer an acetyl group |
| SRPETQKGVIFYESHGKLEYKDIP (SRPETQKGVIFYESHGKLEYKDIP) |  | 102 ± 5% |  | 0% |  |
| SSPETQKGVIFYESHGKLEYKDIP (SSPETQKGVIFYESHGKLEYKDIP) |  | 140 ± 6% |  | 0% |  |
| STPETQKGVIFYESHGKLEYKDIP (STPETQKGVIFYESHGKLEYKDIP) |  | 144 ± 8% |  | 0% |  |
| SVPETQKGVIFYESHGKLEYKDIP (SVPETQKGVIFYESHGKLEYKDIP) |  | 123 ± 7% |  | 0% |  |
| SWPETQKGVIFYESHGKLEYKDIP (SWPETQKGVIFYESHGKLEYKDIP) |  | 91 ± 5% |  | 0% |  |
| SYPETQKGVIFYESHGKLEYKDIP (SYPETQKGVIFYESHGKLEYKDIP) |  | 169 ± 8% |  | 0% |  |
| SYSMEHFRWGKPVGKKRRPVKVYP [ACTH (Human), reference compound] | 100 ± 5% | 100 ± 5% | 0% | 0% | effectively transfer an acetyl group |
| TIPETQKGVIFYESHGKLEYKDIP (TIPETQKGVIFYESHGKLEYKDIP) | 103 ± 5% |  | 0% |  |  |
| VIPETQKGVIFYESHGKLEYKDIP (VIPETQKGVIFYESHGKLEYKDIP) | 69 ± 4% |  | 0% |  |  |
| WIPETQKGVIFYESHGKLEYKDIP (WIPETQKGVIFYESHGKLEYKDIP) | 0% |  | 0% |  |  |
| YIPETQKGVIFYESHGKLEYKDIP (YIPETQKGVIFYESHGKLEYKDIP) | 20 ± 2% |  | 0% |  |  |
| human superoxide dismutase (1-24): synthetic peptide substrate, residues 1-24 of human superoxide dismutase (ATKAVCVLKGDGPVQGIINFEQKE; UniProt P00441 2-25, looked up, fragment) |  |  |  |  | effectively transfer an acetyl group |
